Assay [1] addresses CXC chemokine receptor 3 isoform A (CXCR3A) on transfected CHO cells (UniProt P49682).
Assay [2] deals with CXCR3 on primary human T lymphocytes stimulated with PHA and IL-2 (human (endogenous in primary T lymphocytes)) (UniProt P49682).

Take “C-terminally truncated CXCL10(1-73) (from UniProt P02778 22-94) (ligand)”: the desensitization: reduction of the calcium increase to 3 nM CXCL10(1-77) in CXCR3A-transfected CHO cells when 45 nM (69.9%) or 90 nM (72.2%) CXCL10(1-73) was added 100 s before in assay [1] worked out at 72.2%. This substance also returned a CXCR3 internalization: mean MFI of surface CXCR3 on PHA- and IL-2-stimulated primary T lymphocytes, as % of medium-treated cells, after 45 nM (90.1%) or 90 nM (83.3%) for 10 min at 37 °C in assay [2] of 90.1%.

The values above are taken from publication PMC10835923.
